Experimental data reported in article PMC8566583.
Several values for one entry are separate records, joined by “and”; a condition that tells them apart may be missing. Identical values can stand only once. Values belong to the molecule of their own block, whether it stands above or below them.

Assays:
PARP1 (Homo sapiens) = PARP1 (Homo sapiens) (UniProt P09874); conditions: cited from earlier work
PARP2 (Homo sapiens) = PARP2 (Homo sapiens) (UniProt Q9UGN5); conditions: cited from earlier work
[1] = target: Recombinant wild-type human PARP1 (human) (UniProt P09874)
[2] = target: Recombinant wild-type murine PARP2 (murine) (UniProt O88554)
Chain of UniProt O88554 (O88554 whole entry): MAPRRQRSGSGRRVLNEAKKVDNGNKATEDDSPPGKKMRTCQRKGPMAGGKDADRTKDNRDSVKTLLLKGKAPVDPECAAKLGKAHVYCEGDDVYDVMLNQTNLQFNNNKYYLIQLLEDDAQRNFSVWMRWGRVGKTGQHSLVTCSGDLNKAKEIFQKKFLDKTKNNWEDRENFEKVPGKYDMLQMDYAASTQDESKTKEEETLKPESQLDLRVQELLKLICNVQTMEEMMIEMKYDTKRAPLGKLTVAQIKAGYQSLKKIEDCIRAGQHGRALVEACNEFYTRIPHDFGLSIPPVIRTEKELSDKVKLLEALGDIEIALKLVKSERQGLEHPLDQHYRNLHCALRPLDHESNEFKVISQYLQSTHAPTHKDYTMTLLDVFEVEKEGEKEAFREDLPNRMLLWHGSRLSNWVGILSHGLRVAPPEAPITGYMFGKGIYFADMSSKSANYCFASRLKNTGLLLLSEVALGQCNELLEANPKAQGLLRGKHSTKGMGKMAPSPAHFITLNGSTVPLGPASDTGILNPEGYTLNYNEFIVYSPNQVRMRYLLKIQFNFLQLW

Chain of UniProt Q9UGN5 (Q9UGN5 whole entry): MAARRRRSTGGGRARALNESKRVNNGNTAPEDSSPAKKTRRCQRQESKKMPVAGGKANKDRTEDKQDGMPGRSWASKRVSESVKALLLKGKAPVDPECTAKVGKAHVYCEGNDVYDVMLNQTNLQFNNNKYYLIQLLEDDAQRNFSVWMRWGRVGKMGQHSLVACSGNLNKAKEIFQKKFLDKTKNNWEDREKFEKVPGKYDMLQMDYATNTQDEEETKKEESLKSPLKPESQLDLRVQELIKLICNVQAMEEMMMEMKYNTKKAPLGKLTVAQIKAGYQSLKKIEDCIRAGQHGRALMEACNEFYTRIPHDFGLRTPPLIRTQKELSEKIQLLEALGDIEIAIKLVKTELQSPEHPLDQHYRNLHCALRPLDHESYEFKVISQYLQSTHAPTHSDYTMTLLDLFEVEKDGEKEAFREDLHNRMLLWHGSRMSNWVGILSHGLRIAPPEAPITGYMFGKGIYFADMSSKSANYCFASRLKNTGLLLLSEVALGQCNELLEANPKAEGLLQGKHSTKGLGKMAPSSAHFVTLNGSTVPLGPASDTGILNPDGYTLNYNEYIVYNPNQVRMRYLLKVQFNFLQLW

Molecule: HPF1 (from UniProt Q9NWY4)
- Kd (PARP1 (Homo sapiens)): > 3000 nM and 790 nM
- Kd (PARP2 (Homo sapiens)): 280 nM

- DNA-independent autoPARylation level of PARP1 (500 nM, 1 uM [32P]NAD+, no DNA or NCP) with HPF1 from 60 nM to 16 uM, relative to no HPF1; maximal effect [1]: 1.6 fold
- DNA-independent autoPARylation level of PARP2 (500 nM, 1 uM [32P]NAD+, no DNA or NCP) with HPF1 from 60 nM to 16 uM, relative to no HPF1; maximal effect (at a 4-fold excess of HPF1) [2]: 2.4 fold
B1: histone PARylation factor 1 (HPF1), recombinant human (natural protein)
chain: MVGGGGKRRPGGEGPQCEKTTDVKKSKFCEADVSSDLRKEVENHYKLSLPEDFYHFWKFCEELDPEKPSDSLSASLGLQLVGPYDILAGKHKTKKKSTGLNFNLHWRFYYDPPEFQTIIIGDNKTQYHMGYFRDSPDEFPVYVGINEAKKNCIIVPNGDNVFAAVKLFLTKKLREITDKKKINLLKNIDEKLTEAARELGYSLEQRTVKMKQRDKKVVTKTFHGAGLVVPVDKNDVGYRELPETDADLKRICKTIVEAASDEERLKAFAPIQEMMTFVQFANDECDYGMGLELGMDLFCYGSHYFHKVAGQLLPLAYNLLKRNLFAEIIEEHLANRSQENIDQLAA
